Source: US20200025774A1 (ENTEROME S A, published 2020)

biological target: T1, HLA-A*0201 molecule expressed on human T2 cells (human); test: T2 cell HLA-A*0201 stabilisation assay, flow cytometry; ratio of the peptide concentrations inducing 20% of HLA-A*0201 expression
T1 construct: also called HLA.A2.01
Method: T2 cells (2.10⁵ cells per well) were incubated with decreasing concentrations of peptides from 100 μM to 0.1 μM in a AIMV medium supplemented with 100 ng/μl of human β2m at 37° C. for 16 hours.
The analysis was performed by FACS (Guava Easy Cyte). […] The relative affinity is then determined as follows:

| In vitro binding affinity (relative affinity against reference peptide HIV pol 589-597) | Binder |
| --- | --- |
| 2.22 | ILPFGFILA [peptide 1I9A] |
| 3.06 | ALPFGFILV [peptide 1A9V] |
| 2.62 | FLPFGFILM [peptide 1F9M] |
